The target in assay [1] is T1, human FLAG-SCAPER (recombinant, purified) (human, UniProt Q9BY12 1-1400).
T1 construct: SCAPER, human cDNA from Genscript recloned with an N-terminal FLAG tag; construct names (aa351-1400) imply 1400 residues; In the cryo-EM map only the part from residue 859 on (CTD) was resolved; also called recombinant SCAPER; source: Expi293 cells, transfected, purified (anti-FLAG resin, 3xFLAG peptide elution); not shown: FLAG, N-terminal, kept
T1 sequence: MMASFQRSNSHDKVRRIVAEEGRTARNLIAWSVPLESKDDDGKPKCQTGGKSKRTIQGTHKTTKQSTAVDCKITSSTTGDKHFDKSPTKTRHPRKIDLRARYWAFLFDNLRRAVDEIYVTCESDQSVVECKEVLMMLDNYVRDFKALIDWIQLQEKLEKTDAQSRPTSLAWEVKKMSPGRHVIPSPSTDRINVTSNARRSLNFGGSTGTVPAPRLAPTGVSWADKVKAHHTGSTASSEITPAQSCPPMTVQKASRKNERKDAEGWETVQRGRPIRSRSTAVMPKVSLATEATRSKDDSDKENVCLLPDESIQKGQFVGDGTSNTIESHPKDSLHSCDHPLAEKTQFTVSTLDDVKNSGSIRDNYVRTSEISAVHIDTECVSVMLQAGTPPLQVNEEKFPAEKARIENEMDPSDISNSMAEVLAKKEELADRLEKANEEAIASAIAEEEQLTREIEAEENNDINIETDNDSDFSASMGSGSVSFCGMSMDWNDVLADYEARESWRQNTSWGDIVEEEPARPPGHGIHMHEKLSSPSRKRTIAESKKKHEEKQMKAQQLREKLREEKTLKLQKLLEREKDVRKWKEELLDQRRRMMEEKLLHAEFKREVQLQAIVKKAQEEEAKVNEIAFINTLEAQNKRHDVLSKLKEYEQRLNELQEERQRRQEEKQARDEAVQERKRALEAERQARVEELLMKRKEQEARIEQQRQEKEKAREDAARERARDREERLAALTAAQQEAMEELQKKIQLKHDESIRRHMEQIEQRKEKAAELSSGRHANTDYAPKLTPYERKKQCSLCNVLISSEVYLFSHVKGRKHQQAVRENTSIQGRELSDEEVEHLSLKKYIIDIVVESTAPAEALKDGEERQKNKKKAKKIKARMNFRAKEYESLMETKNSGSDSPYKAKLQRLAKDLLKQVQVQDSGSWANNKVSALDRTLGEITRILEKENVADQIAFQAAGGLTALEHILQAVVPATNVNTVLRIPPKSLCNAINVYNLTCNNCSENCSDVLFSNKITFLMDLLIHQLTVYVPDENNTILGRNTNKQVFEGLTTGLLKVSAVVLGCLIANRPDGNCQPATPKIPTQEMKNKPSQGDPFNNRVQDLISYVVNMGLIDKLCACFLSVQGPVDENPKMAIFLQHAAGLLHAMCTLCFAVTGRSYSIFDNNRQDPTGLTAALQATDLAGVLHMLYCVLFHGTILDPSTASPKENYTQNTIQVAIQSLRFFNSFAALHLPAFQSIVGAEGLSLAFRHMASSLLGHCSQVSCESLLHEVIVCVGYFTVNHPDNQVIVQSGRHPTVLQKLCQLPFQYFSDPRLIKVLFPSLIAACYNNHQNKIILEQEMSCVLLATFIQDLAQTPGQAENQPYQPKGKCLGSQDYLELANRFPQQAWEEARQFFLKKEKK
Kind of assay: cryo-EM structure; β-tubulin RNCs from rabbit reticulocyte lysate with recombinant Strep-TTC5 and FLAG-SCAPER, affinity purified via TTC5; SCAPER with TTC5. The note with it: both partners purified.

The target of assay [2] is T2, human SCAPER-FLAG (recombinant, purified) (human, UniProt Q9BY12 1-1400).
T2 construct: SCAPER, human cDNA from Genscript; construct names (aa351-1400) imply 1400 residues; also called S-phase cyclin A associated protein residing in the ER; source: Expi293 cells, transfected, purified (anti-FLAG resin, 3xFLAG peptide elution); not shown: FLAG, C-terminal, kept
T2 sequence: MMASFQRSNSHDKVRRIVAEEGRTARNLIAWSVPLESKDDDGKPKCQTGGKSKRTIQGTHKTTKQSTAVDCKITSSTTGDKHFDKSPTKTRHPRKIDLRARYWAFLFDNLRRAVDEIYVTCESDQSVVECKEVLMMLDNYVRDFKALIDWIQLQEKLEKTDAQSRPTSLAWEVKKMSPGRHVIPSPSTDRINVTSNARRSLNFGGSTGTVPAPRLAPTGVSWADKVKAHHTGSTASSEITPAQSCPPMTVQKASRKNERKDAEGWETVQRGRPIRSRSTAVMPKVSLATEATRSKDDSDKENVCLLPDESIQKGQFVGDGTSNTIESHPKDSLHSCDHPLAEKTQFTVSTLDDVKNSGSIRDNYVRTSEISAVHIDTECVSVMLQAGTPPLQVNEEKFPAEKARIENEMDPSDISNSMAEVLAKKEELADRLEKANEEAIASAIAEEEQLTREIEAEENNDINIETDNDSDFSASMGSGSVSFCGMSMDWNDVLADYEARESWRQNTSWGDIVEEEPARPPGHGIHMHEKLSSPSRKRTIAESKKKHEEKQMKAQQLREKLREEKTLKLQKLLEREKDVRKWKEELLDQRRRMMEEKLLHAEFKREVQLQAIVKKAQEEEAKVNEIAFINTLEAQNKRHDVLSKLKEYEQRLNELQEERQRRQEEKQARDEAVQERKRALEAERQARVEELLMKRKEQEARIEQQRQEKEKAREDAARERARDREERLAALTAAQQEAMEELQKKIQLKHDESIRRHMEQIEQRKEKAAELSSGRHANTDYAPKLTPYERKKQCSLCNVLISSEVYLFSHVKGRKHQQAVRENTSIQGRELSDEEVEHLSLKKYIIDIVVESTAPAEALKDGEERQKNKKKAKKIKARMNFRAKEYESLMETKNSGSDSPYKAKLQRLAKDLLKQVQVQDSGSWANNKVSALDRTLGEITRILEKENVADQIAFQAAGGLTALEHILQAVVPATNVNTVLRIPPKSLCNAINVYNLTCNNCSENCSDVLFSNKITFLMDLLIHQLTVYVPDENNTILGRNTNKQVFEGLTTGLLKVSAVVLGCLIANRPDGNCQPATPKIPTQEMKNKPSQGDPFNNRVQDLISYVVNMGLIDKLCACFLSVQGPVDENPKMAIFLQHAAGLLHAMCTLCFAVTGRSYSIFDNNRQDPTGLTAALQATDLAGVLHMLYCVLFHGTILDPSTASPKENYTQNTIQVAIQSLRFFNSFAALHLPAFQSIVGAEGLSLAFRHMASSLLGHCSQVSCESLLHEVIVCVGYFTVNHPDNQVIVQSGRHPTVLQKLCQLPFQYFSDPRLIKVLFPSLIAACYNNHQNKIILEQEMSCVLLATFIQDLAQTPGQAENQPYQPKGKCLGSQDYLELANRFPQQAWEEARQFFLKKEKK
In words: pull-down; 100 nM SCAPER-FLAG and 150 nM Strep-TTC5 in IP buffer (50 mM HEPES pH 7.4, 100 mM KAc, 5 mM MgAc2, 1 mM DTT, 0.01% digitonin), 4°C; Streptactin magnetic beads; Coomassie. The conditions noted are these: both partners purified.

B1: human 6xHis-TEV-Twin-Strep-TTC5 (natural protein)
chain: MMADEEEEVKPILQKLQELVDQLYSFRDCYFETHSVEDAGRKQQDVQKEMEKTLQQMEEVVGSVQGKAQVLMLTGKALNVTPDYSPKAEELLSKAVKLEPELVEAWNQLGEVYWKKGDVAAAHTCFSGALTHCRNKVSLQNLSMVLRQLRTDTEDEHSHHVMDSVRQAKLAVQMDVHDGRSWYILGNSYLSLYFSTGQNPKISQQALSAYAQAEKVDRKASSNPDLHLNRATLHKYEESYGEALEGFSRAAALDPAWPEPRQREQQLLEFLDRLTSLLESKGKVKTKKLQSMLGSLRPAHLGPCSDGHYQSASGQKVTLELKPLSTLQPGVNSGAVILGKVVFSLTTEEKVPFTFGLVDSDGPCYAVMVYNIVQSWGVLIGDSVAIPEPNLRLHRIQHKGKDYSFSSVRVETPLLLVVNGKPQGSSSQAVATVASRPQCE
notes: tetratricopeptide repeat protein 5 (TTC5), human; TEV site between the 6xHis and the Twin-Strep tag; also called tetratricopeptide repeat protein 5; source: E. coli BL21(DE3), purified (Ni-NTA, Streptactin Sepharose); not shown: Twin-Strep, N-terminal, kept
Consider B1, for which the binding result in assay [1] and in assay [2] was “binds” throughout.

Source of the values: publication PMC10403363, “Mechanism of ribosome-associated mRNA degradation during tubulin autoregulation” (Molecular Cell, 2023).
